According to patent US20100216715A1 (Novo Nordisk, published 2010):

T1: human beta-Klotho (human, UniProt Q86Z14 1-1044)
T1 sequence (looked up): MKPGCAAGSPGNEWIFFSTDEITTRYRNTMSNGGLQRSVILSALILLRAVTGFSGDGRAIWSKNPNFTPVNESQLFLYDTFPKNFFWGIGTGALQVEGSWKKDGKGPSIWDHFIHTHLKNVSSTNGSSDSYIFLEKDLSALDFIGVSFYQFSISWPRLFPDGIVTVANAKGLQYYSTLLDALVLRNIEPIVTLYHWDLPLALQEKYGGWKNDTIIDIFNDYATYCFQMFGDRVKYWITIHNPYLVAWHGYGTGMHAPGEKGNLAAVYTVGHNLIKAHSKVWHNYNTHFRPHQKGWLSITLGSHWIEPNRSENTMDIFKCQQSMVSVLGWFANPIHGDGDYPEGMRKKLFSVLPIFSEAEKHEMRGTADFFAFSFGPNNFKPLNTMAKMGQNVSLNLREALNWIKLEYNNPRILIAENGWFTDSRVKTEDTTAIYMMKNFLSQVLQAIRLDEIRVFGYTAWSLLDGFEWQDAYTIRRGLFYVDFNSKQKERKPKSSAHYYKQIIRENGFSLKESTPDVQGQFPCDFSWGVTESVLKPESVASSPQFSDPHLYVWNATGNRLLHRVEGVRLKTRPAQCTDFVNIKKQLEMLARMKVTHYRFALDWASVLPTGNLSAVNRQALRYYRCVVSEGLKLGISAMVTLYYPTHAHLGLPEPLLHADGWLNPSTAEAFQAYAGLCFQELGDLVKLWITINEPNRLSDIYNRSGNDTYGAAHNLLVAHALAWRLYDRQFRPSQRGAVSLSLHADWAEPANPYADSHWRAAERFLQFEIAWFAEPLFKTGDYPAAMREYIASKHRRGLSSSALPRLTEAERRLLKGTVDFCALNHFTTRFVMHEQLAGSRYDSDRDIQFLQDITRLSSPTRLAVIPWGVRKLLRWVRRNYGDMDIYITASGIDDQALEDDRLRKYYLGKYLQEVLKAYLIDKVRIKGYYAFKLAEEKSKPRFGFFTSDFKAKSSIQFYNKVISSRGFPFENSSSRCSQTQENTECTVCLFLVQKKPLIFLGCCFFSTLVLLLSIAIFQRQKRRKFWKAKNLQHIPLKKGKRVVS


Target: T1, human beta-Klotho
Experiment: cell-based or functional assay

Binder | pERK-HEK293-Beta-klotho without HSA [EC50 (nM)] Median Value [nM]
(145aP, 145bM, L146V, P149E, G151E, I152D, A154R, P155G, Q156H, P157L, P158E, D159S, V160D, G161M, S162F, D164S, S167E, M168T, V169D, G170S, P171M, S172D, … (ligand) MHPIPDSSPLLQFGGQVRQRYLYTDDAQQTEAHLEIREDGTVGGAADQSPESLLQLKALKPGVIQILGVKTSRFLCQRPDGALYGSLHFDPEACSFRELLLEDGYNVYQSEAHGLPLHLPGNKSPHRDPAPRGPARFLPLPGLPPAPMVPEEPEDLRGHLESDMFSSPLETDSMDPFGLVTGLEAVRSPSFEK | 17
(S71C, N121Q, L166F, S167G, M168L, 169aT, P171L, S172E, Q173A, G174V, Y179F, A180E, S181K) Gly-FGF21 (ligand) GHPIPDSSPLLQFGGQVRQRYLYTDDAQQTEAHLEIREDGTVGGAADQSPESLLQLKALKPGVIQILGVKTCRFLCQRPDGALYGSLHFDPEACSFRELLLEDGYNVYQSEAHGLPLHLPGQKSPHRDPAPRGPARFLPLPGLPPALPEPPGILAPQPPDVGSSDPFGLVTGLEAVRSPSFEK | 1.1
(-1G, 71C, 166F, 167G, 168L, 169aT, 171L, 172E, 173A, 174V, 179F, 180E, 181K) FGF21 derivative of Example 15 (ligand, S-71-({2-[2-(2-{2-[2-(2-{2-[(S)-4-carboxy-4-(17-carboxy-heptadecanoylamino)-butyrylamino]-ethoxy}-ethoxy)-acetylamino]-ethoxy}-ethoxy)-acetyl-amino]-ethylcarbamoyl}-methyl) on the thiol of Cys71) GHPIPDSSPLLQFGGQVRQRYLYTDDAQQTEAHLEIREDGTVGGAADQSPESLLQLKALKPGVIQILGVKTCRFLCQRPDGALYGSLHFDPEACSFRELLLEDGYNVYQSEAHGLPLHLPGNKSPHRDPAPRGPARFLPLPGLPPALPEPPGILAPQPPDVGSSDPFGLVTGLEAVRSPSFEK | 1.6
(166F, 167G, 168L, 169aT, 171L, 172E, 173A, 174V, 179F, 180E, 181K) (Compound Z) (ligand) MHPIPDSSPLLQFGGQVRQRYLYTDDAQQTEAHLEIREDGTVGGAADQSPESLLQLKALKPGVIQILGVKTSRFLCQRPDGALYGSLHFDPEACSFRELLLEDGYNVYQSEAHGLPLHLPGNKSPHRDPAPRGPARFLPLPGLPPALPEPPGILAPQPPDVGSSDPFGLVTGLEAVRSPSFEK | 1
(S71C, D102E, N121Q, L166F, S167G, M168L, 169aT, P171L, S172E, Q173A, G174V, Y179F, A180E, S181K) Ala-FGF21 (ligand) AHPIPDSSPLLQFGGQVRQRYLYTDDAQQTEAHLEIREDGTVGGAADQSPESLLQLKALKPGVIQILGVKTCRFLCQRPDGALYGSLHFDPEACSFRELLLEEGYNVYQSEAHGLPLHLPGQKSPHRDPAPRGPARFLPLPGLPPALPEPPGILAPQPPDVGSSDPFGLVTGLEAVRSPSFEK | 3.3
(-1G, 71C, 121Q, 166F, 167G, 168L, 169aT, 171L, 172E, 173A, 174V, 179F, 180E, 181K) FGF21 derivative of Example 16 (ligand, S-71-({2-[2-(2-{2-[2-(2-{2-[(S)-4-carboxy-4-(17-carboxy-heptadecanoylamino)-butyrylamino]-ethoxy}-ethoxy)-acetylamino]-ethoxy}-ethoxy)-acetylamino]-ethylcarbamoyl}-methyl) on the thiol of Cys71) GHPIPDSSPLLQFGGQVRQRYLYTDDAQQTEAHLEIREDGTVGGAADQSPESLLQLKALKPGVIQILGVKTCRFLCQRPDGALYGSLHFDPEACSFRELLLEDGYNVYQSEAHGLPLHLPGQKSPHRDPAPRGPARFLPLPGLPPALPEPPGILAPQPPDVGSSDPFGLVTGLEAVRSPSFEK | 1.4
(S71C, L166F, S167G, M168L, 169aT, P171L, S172E, Q173A, G174V, Y179F, A180E, S181K) Gly-FGF21 (ligand) GHPIPDSSPLLQFGGQVRQRYLYTDDAQQTEAHLEIREDGTVGGAADQSPESLLQLKALKPGVIQILGVKTCRFLCQRPDGALYGSLHFDPEACSFRELLLEDGYNVYQSEAHGLPLHLPGNKSPHRDPAPRGPARFLPLPGLPPALPEPPGILAPQPPDVGSSDPFGLVTGLEAVRSPSFEK | 1.4
(-14E, -13E, -12A, -11E, -10A, -9G, -8G, -7A, -6G, -5G, -4S, -3G, -2G, -1S, K56R, 59R, 69R, 122R) FGF21 derivative of Example 51 (ligand, N-alpha-1-[(S)-4-carboxy-4-(17-carboxy-heptadecanoylamino)-butyryl] on the N-terminal alpha amino group) EEAEAGGAGGSGGSHPIPDSSPLLQFGGQVRQRYLYTDDAQQTEAHLEIREDGTVGGAADQSPESLLQLRALRPGVIQILGVRTSRFLCQRPDGALYGSLHFDPEACSFRELLLEDGYNVYQSEAHGLPLHLPGNRSPHRDPAPRGPARFLPLPGLPPALPEPPGILAPQPPDVGSSDPLSMVGPSQGRSPSYAS | 12
(D102N) Met-FGF21 (ligand) MHPIPDSSPLLQFGGQVRQRYLYTDDAQQTEAHLEIREDGTVGGAADQSPESLLQLKALKPGVIQILGVKTSRFLCQRPDGALYGSLHFDPEACSFRELLLENGYNVYQSEAHGLPLHLPGNKSPHRDPAPRGPARFLPLPGLPPALPEPPGILAPQPPDVGSSDPLSMVGPSQGRSPSYAS | 0.7
(M168S) Met-FGF21 (ligand) MHPIPDSSPLLQFGGQVRQRYLYTDDAQQTEAHLEIREDGTVGGAADQSPESLLQLKALKPGVIQILGVKTSRFLCQRPDGALYGSLHFDPEACSFRELLLEDGYNVYQSEAHGLPLHLPGNKSPHRDPAPRGPARFLPLPGLPPALPEPPGILAPQPPDVGSSDPLSSVGPSQGRSPSYAS | 100
(M168A) Met-FGF21 (ligand) MHPIPDSSPLLQFGGQVRQRYLYTDDAQQTEAHLEIREDGTVGGAADQSPESLLQLKALKPGVIQILGVKTSRFLCQRPDGALYGSLHFDPEACSFRELLLEDGYNVYQSEAHGLPLHLPGNKSPHRDPAPRGPARFLPLPGLPPALPEPPGILAPQPPDVGSSDPLSAVGPSQGRSPSYAS | 100
D102T Met-FGF21 (ligand) MHPIPDSSPLLQFGGQVRQRYLYTDDAQQTEAHLEIREDGTVGGAADQSPESLLQLKALKPGVIQILGVKTSRFLCQRPDGALYGSLHFDPEACSFRELLLETGYNVYQSEAHGLPLHLPGNKSPHRDPAPRGPARFLPLPGLPPALPEPPGILAPQPPDVGSSDPLSMVGPSQGRSPSYAS | 1.7
(Q15F) Met-FGF21 (ligand) MHPIPDSSPLLQFGGFVRQRYLYTDDAQQTEAHLEIREDGTVGGAADQSPESLLQLKALKPGVIQILGVKTSRFLCQRPDGALYGSLHFDPEACSFRELLLEDGYNVYQSEAHGLPLHLPGNKSPHRDPAPRGPARFLPLPGLPPALPEPPGILAPQPPDVGSSDPLSMVGPSQGRSPSYAS | 3.3
(N121Q) Met-FGF21 (ligand) MHPIPDSSPLLQFGGQVRQRYLYTDDAQQTEAHLEIREDGTVGGAADQSPESLLQLKALKPGVIQILGVKTSRFLCQRPDGALYGSLHFDPEACSFRELLLEDGYNVYQSEAHGLPLHLPGQKSPHRDPAPRGPARFLPLPGLPPALPEPPGILAPQPPDVGSSDPLSMVGPSQGRSPSYAS | 1
M168L Met-FGF21 (ligand) MHPIPDSSPLLQFGGQVRQRYLYTDDAQQTEAHLEIREDGTVGGAADQSPESLLQLKALKPGVIQILGVKTSRFLCQRPDGALYGSLHFDPEACSFRELLLEDGYNVYQSEAHGLPLHLPGNKSPHRDPAPRGPARFLPLPGLPPALPEPPGILAPQPPDVGSSDPLSLVGPSQGRSPSYAS | 1.4
(N121D) Met-FGF21 (ligand) MHPIPDSSPLLQFGGQVRQRYLYTDDAQQTEAHLEIREDGTVGGAADQSPESLLQLKALKPGVIQILGVKTSRFLCQRPDGALYGSLHFDPEACSFRELLLEDGYNVYQSEAHGLPLHLPGDKSPHRDPAPRGPARFLPLPGLPPALPEPPGILAPQPPDVGSSDPLSMVGPSQGRSPSYAS | 1.2
K122C Met-FGF21 derivative of Example 4 (ligand, S-122-[1-(2-{2-[2-(2-{2-[2-(2-{2-[(S)-4-carboxy-4-(17-carboxy-heptadecanoylamino)-butyrylamino]-ethoxy}-ethoxy)-acetylamino]-ethoxy}-ethoxy)-acetylamino]-ethylcarbamoyl}-ethyl)-2,5-dioxo-pyrrolidin-3-yl] on the thiol of Cys122) MHPIPDSSPLLQFGGQVRQRYLYTDDAQQTEAHLEIREDGTVGGAADQSPESLLQLKALKPGVIQILGVKTSRFLCQRPDGALYGSLHFDPEACSFRELLLEDGYNVYQSEAHGLPLHLPGNCSPHRDPAPRGPARFLPLPGLPPALPEPPGILAPQPPDVGSSDPLSMVGPSQGRSPSYAS | 0.9
